Reference: US6261760A, “Regulation of the cell cycle by sterols” (priority 1999, dated 2001)

System: LDL FC uptake by fibroblast monolayers
Assay: Effects of metabolic inhibitors on uptake of 3H-cholesterol from LDL (Example 1)
Conditions: cells pretreated with proteinase K; 4 experiments

B1: proteinase K: proteinase K pretreatment of cells (protein, UniProt P06873 106-384, looked up)
Proteinase K: AAQTNAPWGLARISSTSPGTSTYYYDESAGQGSCVYVIDTGIEASHPEFEGRAQMVKTYYYSSRDGNGHGTHCAGTVGSRTYGVAKKTQLFGVKVLDDNGSGQYSTIIAGMDFVASDKNNRNCPKGVVASLSLGGGYSSSVNSAAARLQSSGVMVAVAAGNNNADARNYSPASEPSVCTVGASDRYDRRSSFSNYGSVLDIFGPGTSILSTWIGGSTRSISGTSMATPHVAGLAAYLMTLGKTTAASACRYIADTANKGDLSNIPFGTVNLLAYNNYQA
  inhibition of uptake of 3H-FC LDL label: 7±6%
